Source: patent publication US20190016799A1 (HANGZHOU SUMGEN BIOTECHNOLOGY, published 2019)
Read-outs that look alike come from different tables or passages of the source.

Legend:
[1] = target: T1, hPD1-Fc (fusion protein of human PD-1 protein extracellular segment-human IgG1 Fc fragment) (human, UniProt Q15116 25-170); test: ELISA, plate coated with hPD1-Fc 1 ug/ml, detection with GAH-Fab-HRP, OD450
T1 construct: extracellular domain; Expressed in CHO-K1 cells; also called hPD1-FC-Biotin (biotin-labeled form); not shown: human IgG1 Fc fragment

[2] = target: T1, hPD1-Fc (fusion protein of human PD-1 …); test: as above; remark: listed apart in the source
monkey PD1 = target: T2, monkey PD1 (monkey); test: ELISA, plate coated with monkey PD1 1 ug/ml, detection with GAH-Fab-HRP, OD450
T2 construct: Bought protein; also called monkey PD1 protein; monkey PD1 antigen

[3] = target: T1, hPD1-Fc (fusion protein of human PD-1 …); test: SPR (BIACORE), antibody captured by anti-human IgG-Fab, hPD1-FC as analyte at 3.125-100 nM
Experimental: (§1) The antibody affinity was analyzed using BIACORE Biomacromolecular Interaction Device (GE).

[4] = target: T1, hPD1-Fc (fusion protein of human PD-1 …); test: blocking ELISA: hPDL1 coated at 1 ug/mL, hPD1-FC-Biotin 5 ug/mL, antibody titrated from 500 ug/mL
Experimental: (§2) The plate was washed 3 times with a washing solution repeatedly, added with HRP-labeled avidin, and placed in the dark at room temperature (20±5° C.) for 45 minutes. The plate was washed 5 times with a washing solution repeatedly, and patted on a drying paper to dry out the residual droplets as possible; added with 100 μl of TMB to each well, and placed in the dark for 3 min at room temperature (20±5° C.); 100 μl of 2N H₂SO₄ stop solution was added to each well to stop the substrate reaction, and the microplate reader was read at 450 nm for the OD value.

BTLA = target: T3, BTLA (UniProt Q7Z6A9 31-157, limits assumed); test: ELISA, plate coated with BTLA 1 ug/ml, detection with GAH-Fab-HRP, OD450; antibody concentration not shown on the sheet
T3 construct: Bought protein

CD28 = target: T4, CD28 (UniProt P10747 19-152); test: ELISA, plate coated with CD28 1 ug/ml, detection with GAH-Fab-HRP, OD450; antibody concentration not shown on the sheet
T4 construct: Bought protein

ICOS = target: T5, ICOS (UniProt Q9Y6W8 21-140, limits assumed); test: ELISA, plate coated with ICOS 1 ug/ml, detection with GAH-Fab-HRP, OD450; antibody concentration not shown on the sheet
T5 construct: Bought protein
T5 sequence (looked up): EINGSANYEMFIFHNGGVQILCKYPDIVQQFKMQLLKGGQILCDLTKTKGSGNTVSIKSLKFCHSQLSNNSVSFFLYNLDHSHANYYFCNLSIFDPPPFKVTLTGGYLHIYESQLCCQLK

CTLA4 = target: T6, CTLA4 (UniProt P16410 36-162); test: ELISA, plate coated with CTLA4 1 ug/ml, detection with GAH-Fab-HRP, OD450; antibody concentration not shown on the sheet
T6 construct: Bought protein

[5] = target: T1, hPD1-Fc (fusion protein of human PD-1 …); test: competition ELISA, plate coated with hPD1-FC 1 µg/mL, competitor BMS01-Biotin 0.5 µg/mL, detection with HRP-avidin, OD450
Experimental: as §2

[6] = target: T1, hPD1-Fc (fusion protein of human PD-1 …); test: SPR (BIACORE), antibody captured by anti-human IgG-Fab on the chip, hPD1-FC as mobile phase at 3.125-100 nM; the text's value is tenfold above Table 1
Experimental: as §1

T1 sequence (Q15116 25-170): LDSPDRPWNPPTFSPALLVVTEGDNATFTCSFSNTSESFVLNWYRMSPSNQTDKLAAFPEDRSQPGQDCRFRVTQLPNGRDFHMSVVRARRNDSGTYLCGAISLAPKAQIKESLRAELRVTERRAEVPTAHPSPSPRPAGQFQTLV
T6 sequence (P16410 36-162 limits assumed): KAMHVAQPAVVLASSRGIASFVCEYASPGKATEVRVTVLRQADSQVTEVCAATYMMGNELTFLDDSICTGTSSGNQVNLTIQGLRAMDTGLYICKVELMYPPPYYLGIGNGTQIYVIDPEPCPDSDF

EC50 (read off the curve) [1]: ~0.05 µg/mL
EC50 (read off the curve) [2]: ~0.03 µg/mL
EC50 (read off the curve) (monkey PD1): ~0.03 µg/mL
Kd [3]: 0.215 nM
koff [3]: 6.85e-05 s⁻¹
kon [3]: 318000 M⁻¹ s⁻¹
IC50 [4]: 1.47 µg/mL
binding result (BTLA): no binding
binding result (CD28): no binding
binding result (ICOS): no binding
binding result (CTLA4): no binding
IC50 (read off the curve) [5]: ~30 µg/mL
Kd [6]: 0.215 nM
B1: SG001 antibody (antibody, human IgG1, kappa, V domains shown)
VH: QVQLVESGGGVVQPGRSLRLTCKASGLTFSSSGMHWVRQAPGKGLEWVAVIWYDGSKRYYADSVKGRFTISRDNSKNTLFLQMNSLRAEDTAVYYCATNNDYWGQGTLVTVSS
VL: EIVLTQSPATLSLSPGERATLSCRASQSVSSYLAWYQQKPGQAPRLLIYTASNRATGIPARFSGSGSGTDFTLTISSLEPEDFAVYYCQQYSNWPRTFGQGTKVEIKR
